Legend:
CXCL10 = molecular target: T1, CXCL10 (Homo sapiens, UniProt P02778); test: CXCL10-induced activated T-cell migration, transwell assay; assay type: cell-based; conditions: dose of 20 μM
T1 construct: purchased Peprotech
T1 sequence (P02778 22-98): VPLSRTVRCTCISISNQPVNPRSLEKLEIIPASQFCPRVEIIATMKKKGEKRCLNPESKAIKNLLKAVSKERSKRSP
Procedure: FIG. 2. […] BK1.2 is described in (Darlot, 2020). […] Chemokines used are indicated by the name, followed in parenthesis by the supplier code (P in supplier code indicates Peprotech). […] All experiments were performed at EC80 doses of indicated chemokine. Data are shown as box-whisker plots of three technical and three biological replicates. Statistically significant differences (compared to control, indicated by #), using Dunnett's test with correction for multiple comparisons, are indicated by asterisks: ****=P≤0.0001, ***=P≤0.001, **=P≤0.01, *=P≤0.05.
FIG. 11. […] Technical replicates are shown as individual data points. […] The response curve (solid blue line) and its 95% confidence interval (grey ribbon) were calculated using a 4-parameter log-logistic plot.
Briefly, cell migration assays use THP1 cells (human monocyte) and primary human buffy coat white cells (consisting of neutrophil granulocytes, monocytes, and lymphocytes), and activated T-cells. THP1 cells and primary monocytes respond to CCL2, CCL3, CCL5, CCL8 and CXCL4, granulocytes to CXCL1 and CXCL8, activated T-cells to CXCL9/10/11. Assays are performed in 96-well Boyden chambers, and migrated cells counted and characterized using and ATTUNE Flow Cytometer as described. […]

CC and CXC chemokines = test: Chemokine-induced cell migration assays, pooled over chemokines (meta-analysis); assay type: cell-based, human; conditions: CC chemokines
Procedure: FIG. 16. Effect of HD2 alanine mutations on chemotaxis. […] All experiments were performed as three technical and three biological replicates, and individual data points are indicated, and coloured by the chemokine used. Statistically significant differences (compared to control, coloured blue), using Dunnett's test with correction for multiple comparisons, are indicated by asterisks: ****=P≤0.0001, ***=P≤0.001, **=P≤0.01, *=P≤0.05, n=45 observations per group (three technical and three biological replicates for each chemokine). FIG. 16B, Faceted plots of change in median normalised cell count between alanine mutant and wild-type HD2 peptide obtained in cell migration assays (Y-axis, Δmedian normalised cell count) versus alanine mutated residue (X-axis). Chemokines used for each experiment are indicated in the strip to the right of each plot. Statistically significant differences compared to parental HD2 are shown as red dots. […]
Briefly, cell migration assays use THP1 cells (human monocyte) and primary human buffy coat white cells (consisting of neutrophil granulocytes, monocytes, and lymphocytes), and activated T-cells. […] Assays are performed in 96-well Boyden chambers, and migrated cells counted and characterized using and ATTUNE Flow Cytometer as described. […]

B1: EVA4: parental class A tick evasin protein of HD2, expressed in HEK293F cells (protein)
chain: EVPQMTSSSAPDLEEEDDYTAYAPLTCYFTNSTLGLLAPPNCSVLCNSTTTWFNETSPNNASCLLTVDFLTQDAILQENQPYNCSVGHCDNGTCAGPPRHAQCW
CXCL10
  inhibition of cell migration: did not inhibit
CC and CXC chemokines
  inhibition of CC chemokines in dose-response experiments: inhibited
